Positions count from the first letter of the chain named. Read-outs that look alike come from different tables or passages of the source.

These results are taken from publication PMC3167620.

The target in series [1] is T1, G4R1/RHAU (G4 Resolvase 1) (human, UniProt Q9H2U1 1-1008).
T1 sequence: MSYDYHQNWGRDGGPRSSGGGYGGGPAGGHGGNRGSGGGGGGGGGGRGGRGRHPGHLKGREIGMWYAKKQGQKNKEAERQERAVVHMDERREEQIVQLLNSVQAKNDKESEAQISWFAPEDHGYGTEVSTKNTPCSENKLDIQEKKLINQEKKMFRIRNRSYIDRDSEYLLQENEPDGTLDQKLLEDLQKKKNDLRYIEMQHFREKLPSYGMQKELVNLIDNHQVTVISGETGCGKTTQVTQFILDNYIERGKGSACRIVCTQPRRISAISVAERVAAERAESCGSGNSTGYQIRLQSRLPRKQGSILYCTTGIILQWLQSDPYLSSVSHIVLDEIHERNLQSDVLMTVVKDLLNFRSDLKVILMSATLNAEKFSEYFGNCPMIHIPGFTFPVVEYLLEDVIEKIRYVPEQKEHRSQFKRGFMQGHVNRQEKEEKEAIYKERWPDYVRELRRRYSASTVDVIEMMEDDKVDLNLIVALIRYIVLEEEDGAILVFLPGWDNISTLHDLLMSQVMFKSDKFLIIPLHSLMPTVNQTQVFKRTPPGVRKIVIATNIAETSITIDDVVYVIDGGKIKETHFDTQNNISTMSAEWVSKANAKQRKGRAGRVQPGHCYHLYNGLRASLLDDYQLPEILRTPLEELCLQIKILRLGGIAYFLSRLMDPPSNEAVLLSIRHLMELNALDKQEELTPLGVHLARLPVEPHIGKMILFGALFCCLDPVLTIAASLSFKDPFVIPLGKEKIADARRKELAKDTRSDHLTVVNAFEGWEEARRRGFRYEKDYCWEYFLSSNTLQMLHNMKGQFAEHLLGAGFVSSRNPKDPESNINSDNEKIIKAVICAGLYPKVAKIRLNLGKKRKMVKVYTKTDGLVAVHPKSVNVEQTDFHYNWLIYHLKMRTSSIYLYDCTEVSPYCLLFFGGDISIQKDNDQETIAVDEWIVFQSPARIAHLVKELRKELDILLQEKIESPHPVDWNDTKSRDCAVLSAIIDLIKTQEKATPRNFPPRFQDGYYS
Description: EMSA. (In general: Mobility shift assays separate free from complexed probe on a gel.)

In series [2] the target is T1, G4R1/RHAU (G4 Resolvase 1). Description: competition.
Series [3] deals with T1, G4R1/RHAU (G4 Resolvase 1). Description: competition. This is another data set of the same source.
Series [4] addresses T1, G4R1/RHAU (G4 Resolvase 1). Description: EMSA. This is another data set of the same source.
Series [5] addresses T2, G4R1/RHAU E335A (Walker B, ATPase-dead) (human, UniProt Q9H2U1 1-1008, E335A).
T2 sequence: T1 sequence with E335A
Description: EMSA.

Series [6] concerns the target T1, G4R1/RHAU (G4 Resolvase 1). Description: EMSA. The source holds these as a separate data set.
The target of series [7] is T1, G4R1/RHAU (G4 Resolvase 1). Description: EMSA. The source holds these as a separate data set.

In series [1], TTTTTTTTTTGGGTGGGGGGGGCGGGGGAGGCCGGGGTTTTTTTTTT (structured_DNA) [Poly T Zic1 DNA 47-mer, unimolecular G4] returned an equilibrium dissociation constant (Kd) of 2.4 ± 0.2 pM.

AAAGTGATGGTGGTGGGGGAAGGATTTTCGAAC (structured_DNA) [Z33 tetramolecular G4-DNA]: the IC50 in series [2] was 1 competitor:substrate molar ratio.

B1: c-Myc DNA 51-mer, unimolecular G4 (structured_DNA)
DNA: GGCCGCTTATGGGGAGGGTGGGGAGGGTGGGGAAGGTGGGGAGGAGACTCA
For B1, in series [3], the IC50 was 0.06 competitor:substrate molar ratio. Besides, binding in series [1] was characterised by a dissociation constant (Kd) of 4.4 ± 0.6 pM.

Consider AAAAAAAAAAGGGTGGGGGGGCGGGGGAGGCCGGGGAAAAAAAAAA (structured_DNA) [Poly A Zic1 DNA 47-mer, unimolecular G4], for which the Kd in series [4] turned out to be 5 pM; in series [1] it was 5.7 ± 0.2 pM. For the same molecule, in series [5], the binding result is given as “binds”.

For the molecule AAAAAAAAAAGGGTGGGGGGGCGGGGGAGGCCGGGGAAAAAAAAAA (ssDNA, guanine N7 methylation (DMS)) [Poly A Zic1 47-mer, dimethyl sulfate treated], in series [6], the binding result was “no binding”.

In the case of AGAAGAGAGAGAGTGAGAGAGACGAGAGAGGCCGAGAAGAGAGAGAG (ssDNA) [Scrambled Zic1 DNA 47-mer], the dissociation constant (Kd) in series [7] was over 300 pM.

What is called Kd is the constant that tells how readily two partners part at equilibrium. A lower Kd goes with higher affinity.
